Columns and labels:
[1] = biological target: amyloid β peptide Aβ(1–42) (UniProt P05067)
[2] = biological target: T1, I59T human lysozyme (human) (UniProt P61626)
T1 sequence: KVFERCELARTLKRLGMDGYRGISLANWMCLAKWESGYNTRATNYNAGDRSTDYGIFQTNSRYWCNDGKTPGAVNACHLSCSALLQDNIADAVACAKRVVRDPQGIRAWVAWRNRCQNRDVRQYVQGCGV

[3] = biological target: T1, I59T human lysozyme (human); remark: listed apart in the source

suppression of ThT signal at the endpoint of Aβ(1–42) fibril formation, Aβ-to-α2M 10:1 [1]: > 80% | decrease of ThT fluorescence at the endpoint of I59T lysozyme fibril formation, lysozyme-to-α2M 10:1 [2]: > 90% | I59T lysozyme left soluble at the endpoint (SDS–PAGE of supernatants) [3]: > 90%
B1: native α2-macroglobulin (natural protein)
chain: SVSGKPQYMVLVPSLLHTETTEKGCVLLSYLNETVTVSASLESVRGNRSLFTDLEAENDVLHCVAFAVPKSSSNEEVMFLTVQVKGPTQEFKKRTTVMVKNEDSLVFVQTDKSIYKPGQTVKFRVVSMDENFHPLNELIPLVYIQDPKGNRIAQWQSFQLEGGLKQFSFPLSSEPFQGSYKVVVQKKSGGRTEHPFTVEEFVLPKFEVQVTVPKIITILEEEMNVSVCGLYTYGKPVPGHVTVSICRKYSDASDCHGEDSQAFCEKFSGQLNSHGCFYQQVKTKVFQLKRKEYEMKLHTEAQIQEEGTVVELTGRQSSEITRTITKLSFVKVDSHFRQGIPFFGQVRLVDGKGVPIPNKVIFIRGNEANYYSNATTDEHGLVQFSINTTNVMGTSLTVRVNYKDRSPCYGYQWVSEEHEEAHHTAYLVFSPSKSFVHLEPMSHELPCGHTQTVQAHYILNGGTLLGLKKLSFYYLIMAKGGIVRTGTHGLLVKQEDMKGHFSISIPVKSDIAPVARLLIYAVLPTGDVIGDSAKYDVENCLANKVDLSFSPSQSLPASHAHLRVTAAPQSVCALRAVDQSVLLMKPDAELSASSVYNLLPEKDLTGFPGPLNDQDNEDCINRHNVYINGITYTPVSSTNEKDMYSFLEDMGLKAFTNSKIRKPKMCPQLQQYEMHGPEGLRVGFYESDVMGRGHARLVHVEEPHTETVRKYFPETWIWDLVVVNSAGVAEVGVTVPDTITEWKAGAFCLSEDAGLGISSTASLRAFQPFFVELTMPYSVIRGEAFTLKATVLNYLPKCIRVSVQLEASPAFLAVPVEKEQAPHCICANGRQTVSWAVTPKSLGNVNFTVSAEALESQELCGTEVPSVPEHGRKDTVIKPLLVEPEGLEKETTFNSLLCPSGGEVSEELSLKLPPNVVEESARASVSVLGDILGSAMQNTQNLLQMPYGCGEQNMVLFAPNIYVLDYLNETQQLTPEIKSKAIGYLNTGYQRQLNYKHYDGSYSTFGERYGRNQGNTWLTAFVLKTFAQARAYIFIDEAHITQALIWLSQRQKDNGCFRSSGSLLNNAIKGGVEDEVTLSAYITIALLEIPLTVTHPVVRNALFCLESAWKTAQEGDHGSHVYTKALLAYAFALAGNQDKRKEVLKSLNEEAVKKDNSVHWERPQKPKAPVGHFYEPQAPSAEVEMTSYVLLAYLTAQPAPTSEDLTSATNIVKWITKQQNAQGGFSSTQDTVVALHALSKYGAATFTRTGKAAQVTIQSSGTFSSKFQVDNNNRLLLQQVSLPELPGEYSMKVTGEGCVYLQTSLKYNILPEKEEFPFALGVQTLPQTCDEPKAHTSFQISLSVSYTGSRSASNMAIVDVKMVSGFIPLKPTVKMLERSNHVSRTEVSSNHVLIYLDKVSNQTLSLFFTVLQDVPVRDLKPAIVKVYDYYETDEFAIAEYNAPCSKDLGNA

Reference: article PMC3581772
